What was measured:
[1] = biological target: VvGH17 C-terminal-truncated mutant ΔC466 (Vibrio vulnificus); assay: native gel or EMSA; blue native PAGE, 5–10% gradient gel, 4 °C, 150 V for 3.5 h; 50 mM tricine, 15 mM bis-Tris/HCl, pH 7; cathode buffer with 0.02% Coomassie blue G250; monomer to trimer
[2] = biological target: glycoside hydrolase family 17 β-1,3-glucanase of Vibrio vulnificus (VvGH17), wild type (Vibrio vulnificus); assay: as above

stoichiometry N [2] | Substance | stoichiometry N [1]
– | VvGH17 C-terminal-truncated mutant ΔC466 (domain or fragment) | 3
3 | glycoside hydrolase family 17 β-1,3-glucanase of Vibrio vulnificus (VvGH17), wild type (enzyme) | –
